The values below come from article doi:10.1101/292912 (bioRxiv, 2018).

This data set concerns the molecule itself. The experiment in a line: dynamic light scattering.

B1: Δ68-269 SaMGT (transmembrane domain-less monoglycosyltransferase from S. aureus) (domain or fragment)
chain: DNVDELRKIENKSSFVSADNMPEYVKGAFISMEDERFYNHHGFDLKGTTRALFSTISDRDVQGGSTITQQVVKNYFYDNDRSFTRKVKELFVAHRVEKQYNKNEILSFYLNNIYFGDNQYTLEGAANHYFGTTVNKNSTTMSHITVLQSAILASKVNAPSVYNINNMSENFTQRVSTNLEKMKQQNYINETQYQQAMSQLNR
For B1, the binding result is recorded as “binds”.
